# Assay results from paper PMC9418156.
# Key:
# [1] = cycloheximide chase, anti-FLAG blot; details: glycan lost; control: wild type
# [2] = surface biotinylation, anti-LAT1 blot; details: glycan lost; control: wild type
# [3] = brefeldin A washout, confocal time course; details: glycan lost; control: wild type
# [4] = co-transfection with HA-LAT1, brefeldin washout, confocal; details: glycan lost; control: wild type
# [5] = cell surface biotinylation, anti-FLAG blot; details: glycan lost; control: wild type
# [6] = confocal, surface anti-CD98 vs anti-FLAG, HEK293; details: glycan lost; control: wild type
# [7] = tunicamycin then surface biotinylation (Fig. S1); details: glycan lost; control: vehicle (DMSO)
Protein,localisation_or_trafficking [6],further results
"CD98 (SLC3A2, 4F2hc): Qm (protein) parent chain: MELQPPEASIAVVSIPRQLPGSHSEAGVQGLSAGDDSELGSHCVAQTGLELLASGDPLPSASQNAEMIETGSDCVTQAGLQLLASSDPPALASKNAEVTGTMSQDTEVDMKEVELNELEPEKQPMNAASGAAMSLAGAEKNGLVKIKVAEDEAEAAAAAKFTGLSKEELLKVAGSPGWVRTRWALLLLFWLGWLGMLAGAVVIIVRAPRCRELPAQKWWHTGALYRIGDLQAFQGHGAGNLAGLKGRLDYLSSLKVKGLVLGPIHKNQKDDVAQTDLLQIDPNFGSKEDFDSLLQSAKKKSIRVILDLTPNYRGENSWFSTQVDTVATKVKDALEFWLQAGVDGFQVRDIENLKDASSFLAEWQNITKGFSEDRLLIAGTNSSDLQQILSLLESNKDLLLTSSYLSDSGSTGEHTKSLVTQYLNATGNRWCSWSLSQARLLTSFLPAQLLRLYQLMLFTLPGTPVFSYGDEIGLDAAALPGQPMEAPVMLWDESSFPDIPGAVSANMTVKGQSEDPGSLLSLFRRLSDQRSKERSLLHGDFHAFSAGPGLFSYIRHWDQNERFLVVLNFGDVGLSAGLQASDLPASASLPAKADLLLSTQPGREEGSPLELERLKLEPHEGLLLRFPYAA",,"degradation_or_half_life, other: percent of initial protein after 6 h [1]: decreases, <20 vs >50; other: routing of partner LAT1 to plasma membrane [2]: abolishes; localisation_or_trafficking [3]: decreases; other: routing of partner LAT1 to plasma membrane [4]: decreases; localisation_or_trafficking [5]: decreases"
"CD98 (SLC3A2, 4F2hc): Qm (N365/381/424/506Q) (protein) parent chain: MELQPPEASIAVVSIPRQLPGSHSEAGVQGLSAGDDSELGSHCVAQTGLELLASGDPLPSASQNAEMIETGSDCVTQAGLQLLASSDPPALASKNAEVTGTMSQDTEVDMKEVELNELEPEKQPMNAASGAAMSLAGAEKNGLVKIKVAEDEAEAAAAAKFTGLSKEELLKVAGSPGWVRTRWALLLLFWLGWLGMLAGAVVIIVRAPRCRELPAQKWWHTGALYRIGDLQAFQGHGAGNLAGLKGRLDYLSSLKVKGLVLGPIHKNQKDDVAQTDLLQIDPNFGSKEDFDSLLQSAKKKSIRVILDLTPNYRGENSWFSTQVDTVATKVKDALEFWLQAGVDGFQVRDIENLKDASSFLAEWQNITKGFSEDRLLIAGTNSSDLQQILSLLESNKDLLLTSSYLSDSGSTGEHTKSLVTQYLNATGNRWCSWSLSQARLLTSFLPAQLLRLYQLMLFTLPGTPVFSYGDEIGLDAAALPGQPMEAPVMLWDESSFPDIPGAVSANMTVKGQSEDPGSLLSLFRRLSDQRSKERSLLHGDFHAFSAGPGLFSYIRHWDQNERFLVVLNFGDVGLSAGLQASDLPASASLPAKADLLLSTQPGREEGSPLELERLKLEPHEGLLLRFPYAA",decreases,
"CD98 (SLC3A2, 4F2hc): tunicamycin (protein) parent chain: MELQPPEASIAVVSIPRQLPGSHSEAGVQGLSAGDDSELGSHCVAQTGLELLASGDPLPSASQNAEMIETGSDCVTQAGLQLLASSDPPALASKNAEVTGTMSQDTEVDMKEVELNELEPEKQPMNAASGAAMSLAGAEKNGLVKIKVAEDEAEAAAAAKFTGLSKEELLKVAGSPGWVRTRWALLLLFWLGWLGMLAGAVVIIVRAPRCRELPAQKWWHTGALYRIGDLQAFQGHGAGNLAGLKGRLDYLSSLKVKGLVLGPIHKNQKDDVAQTDLLQIDPNFGSKEDFDSLLQSAKKKSIRVILDLTPNYRGENSWFSTQVDTVATKVKDALEFWLQAGVDGFQVRDIENLKDASSFLAEWQNITKGFSEDRLLIAGTNSSDLQQILSLLESNKDLLLTSSYLSDSGSTGEHTKSLVTQYLNATGNRWCSWSLSQARLLTSFLPAQLLRLYQLMLFTLPGTPVFSYGDEIGLDAAALPGQPMEAPVMLWDESSFPDIPGAVSANMTVKGQSEDPGSLLSLFRRLSDQRSKERSLLHGDFHAFSAGPGLFSYIRHWDQNERFLVVLNFGDVGLSAGLQASDLPASASLPAKADLLLSTQPGREEGSPLELERLKLEPHEGLLLRFPYAA",,localisation_or_trafficking [7]: decreases
"CD98 (SLC3A2, 4F2hc): Tm (N365/381/424Q) (protein) parent chain: MELQPPEASIAVVSIPRQLPGSHSEAGVQGLSAGDDSELGSHCVAQTGLELLASGDPLPSASQNAEMIETGSDCVTQAGLQLLASSDPPALASKNAEVTGTMSQDTEVDMKEVELNELEPEKQPMNAASGAAMSLAGAEKNGLVKIKVAEDEAEAAAAAKFTGLSKEELLKVAGSPGWVRTRWALLLLFWLGWLGMLAGAVVIIVRAPRCRELPAQKWWHTGALYRIGDLQAFQGHGAGNLAGLKGRLDYLSSLKVKGLVLGPIHKNQKDDVAQTDLLQIDPNFGSKEDFDSLLQSAKKKSIRVILDLTPNYRGENSWFSTQVDTVATKVKDALEFWLQAGVDGFQVRDIENLKDASSFLAEWQNITKGFSEDRLLIAGTNSSDLQQILSLLESNKDLLLTSSYLSDSGSTGEHTKSLVTQYLNATGNRWCSWSLSQARLLTSFLPAQLLRLYQLMLFTLPGTPVFSYGDEIGLDAAALPGQPMEAPVMLWDESSFPDIPGAVSANMTVKGQSEDPGSLLSLFRRLSDQRSKERSLLHGDFHAFSAGPGLFSYIRHWDQNERFLVVLNFGDVGLSAGLQASDLPASASLPAKADLLLSTQPGREEGSPLELERLKLEPHEGLLLRFPYAA",changes,
"CD98 (SLC3A2, 4F2hc): N424Q (protein) parent chain: MELQPPEASIAVVSIPRQLPGSHSEAGVQGLSAGDDSELGSHCVAQTGLELLASGDPLPSASQNAEMIETGSDCVTQAGLQLLASSDPPALASKNAEVTGTMSQDTEVDMKEVELNELEPEKQPMNAASGAAMSLAGAEKNGLVKIKVAEDEAEAAAAAKFTGLSKEELLKVAGSPGWVRTRWALLLLFWLGWLGMLAGAVVIIVRAPRCRELPAQKWWHTGALYRIGDLQAFQGHGAGNLAGLKGRLDYLSSLKVKGLVLGPIHKNQKDDVAQTDLLQIDPNFGSKEDFDSLLQSAKKKSIRVILDLTPNYRGENSWFSTQVDTVATKVKDALEFWLQAGVDGFQVRDIENLKDASSFLAEWQNITKGFSEDRLLIAGTNSSDLQQILSLLESNKDLLLTSSYLSDSGSTGEHTKSLVTQYLNATGNRWCSWSLSQARLLTSFLPAQLLRLYQLMLFTLPGTPVFSYGDEIGLDAAALPGQPMEAPVMLWDESSFPDIPGAVSANMTVKGQSEDPGSLLSLFRRLSDQRSKERSLLHGDFHAFSAGPGLFSYIRHWDQNERFLVVLNFGDVGLSAGLQASDLPASASLPAKADLLLSTQPGREEGSPLELERLKLEPHEGLLLRFPYAA",no change,
"CD98 (SLC3A2, 4F2hc): Dm (N381/424Q) (protein) parent chain: MELQPPEASIAVVSIPRQLPGSHSEAGVQGLSAGDDSELGSHCVAQTGLELLASGDPLPSASQNAEMIETGSDCVTQAGLQLLASSDPPALASKNAEVTGTMSQDTEVDMKEVELNELEPEKQPMNAASGAAMSLAGAEKNGLVKIKVAEDEAEAAAAAKFTGLSKEELLKVAGSPGWVRTRWALLLLFWLGWLGMLAGAVVIIVRAPRCRELPAQKWWHTGALYRIGDLQAFQGHGAGNLAGLKGRLDYLSSLKVKGLVLGPIHKNQKDDVAQTDLLQIDPNFGSKEDFDSLLQSAKKKSIRVILDLTPNYRGENSWFSTQVDTVATKVKDALEFWLQAGVDGFQVRDIENLKDASSFLAEWQNITKGFSEDRLLIAGTNSSDLQQILSLLESNKDLLLTSSYLSDSGSTGEHTKSLVTQYLNATGNRWCSWSLSQARLLTSFLPAQLLRLYQLMLFTLPGTPVFSYGDEIGLDAAALPGQPMEAPVMLWDESSFPDIPGAVSANMTVKGQSEDPGSLLSLFRRLSDQRSKERSLLHGDFHAFSAGPGLFSYIRHWDQNERFLVVLNFGDVGLSAGLQASDLPASASLPAKADLLLSTQPGREEGSPLELERLKLEPHEGLLLRFPYAA",changes,
"CD98 (SLC3A2, 4F2hc): N365Q (protein) parent chain: MELQPPEASIAVVSIPRQLPGSHSEAGVQGLSAGDDSELGSHCVAQTGLELLASGDPLPSASQNAEMIETGSDCVTQAGLQLLASSDPPALASKNAEVTGTMSQDTEVDMKEVELNELEPEKQPMNAASGAAMSLAGAEKNGLVKIKVAEDEAEAAAAAKFTGLSKEELLKVAGSPGWVRTRWALLLLFWLGWLGMLAGAVVIIVRAPRCRELPAQKWWHTGALYRIGDLQAFQGHGAGNLAGLKGRLDYLSSLKVKGLVLGPIHKNQKDDVAQTDLLQIDPNFGSKEDFDSLLQSAKKKSIRVILDLTPNYRGENSWFSTQVDTVATKVKDALEFWLQAGVDGFQVRDIENLKDASSFLAEWQNITKGFSEDRLLIAGTNSSDLQQILSLLESNKDLLLTSSYLSDSGSTGEHTKSLVTQYLNATGNRWCSWSLSQARLLTSFLPAQLLRLYQLMLFTLPGTPVFSYGDEIGLDAAALPGQPMEAPVMLWDESSFPDIPGAVSANMTVKGQSEDPGSLLSLFRRLSDQRSKERSLLHGDFHAFSAGPGLFSYIRHWDQNERFLVVLNFGDVGLSAGLQASDLPASASLPAKADLLLSTQPGREEGSPLELERLKLEPHEGLLLRFPYAA",no change,
"CD98 (SLC3A2, 4F2hc): N506Q (protein) parent chain: MELQPPEASIAVVSIPRQLPGSHSEAGVQGLSAGDDSELGSHCVAQTGLELLASGDPLPSASQNAEMIETGSDCVTQAGLQLLASSDPPALASKNAEVTGTMSQDTEVDMKEVELNELEPEKQPMNAASGAAMSLAGAEKNGLVKIKVAEDEAEAAAAAKFTGLSKEELLKVAGSPGWVRTRWALLLLFWLGWLGMLAGAVVIIVRAPRCRELPAQKWWHTGALYRIGDLQAFQGHGAGNLAGLKGRLDYLSSLKVKGLVLGPIHKNQKDDVAQTDLLQIDPNFGSKEDFDSLLQSAKKKSIRVILDLTPNYRGENSWFSTQVDTVATKVKDALEFWLQAGVDGFQVRDIENLKDASSFLAEWQNITKGFSEDRLLIAGTNSSDLQQILSLLESNKDLLLTSSYLSDSGSTGEHTKSLVTQYLNATGNRWCSWSLSQARLLTSFLPAQLLRLYQLMLFTLPGTPVFSYGDEIGLDAAALPGQPMEAPVMLWDESSFPDIPGAVSANMTVKGQSEDPGSLLSLFRRLSDQRSKERSLLHGDFHAFSAGPGLFSYIRHWDQNERFLVVLNFGDVGLSAGLQASDLPASASLPAKADLLLSTQPGREEGSPLELERLKLEPHEGLLLRFPYAA",no change,
"CD98 (SLC3A2, 4F2hc): N381Q (protein) parent chain: MELQPPEASIAVVSIPRQLPGSHSEAGVQGLSAGDDSELGSHCVAQTGLELLASGDPLPSASQNAEMIETGSDCVTQAGLQLLASSDPPALASKNAEVTGTMSQDTEVDMKEVELNELEPEKQPMNAASGAAMSLAGAEKNGLVKIKVAEDEAEAAAAAKFTGLSKEELLKVAGSPGWVRTRWALLLLFWLGWLGMLAGAVVIIVRAPRCRELPAQKWWHTGALYRIGDLQAFQGHGAGNLAGLKGRLDYLSSLKVKGLVLGPIHKNQKDDVAQTDLLQIDPNFGSKEDFDSLLQSAKKKSIRVILDLTPNYRGENSWFSTQVDTVATKVKDALEFWLQAGVDGFQVRDIENLKDASSFLAEWQNITKGFSEDRLLIAGTNSSDLQQILSLLESNKDLLLTSSYLSDSGSTGEHTKSLVTQYLNATGNRWCSWSLSQARLLTSFLPAQLLRLYQLMLFTLPGTPVFSYGDEIGLDAAALPGQPMEAPVMLWDESSFPDIPGAVSANMTVKGQSEDPGSLLSLFRRLSDQRSKERSLLHGDFHAFSAGPGLFSYIRHWDQNERFLVVLNFGDVGLSAGLQASDLPASASLPAKADLLLSTQPGREEGSPLELERLKLEPHEGLLLRFPYAA",no change,
